T1: AR-DBD + LBD (yeast 2-hybrid bait) (UniProt P10275 506-920)
T1 sequence (looked up): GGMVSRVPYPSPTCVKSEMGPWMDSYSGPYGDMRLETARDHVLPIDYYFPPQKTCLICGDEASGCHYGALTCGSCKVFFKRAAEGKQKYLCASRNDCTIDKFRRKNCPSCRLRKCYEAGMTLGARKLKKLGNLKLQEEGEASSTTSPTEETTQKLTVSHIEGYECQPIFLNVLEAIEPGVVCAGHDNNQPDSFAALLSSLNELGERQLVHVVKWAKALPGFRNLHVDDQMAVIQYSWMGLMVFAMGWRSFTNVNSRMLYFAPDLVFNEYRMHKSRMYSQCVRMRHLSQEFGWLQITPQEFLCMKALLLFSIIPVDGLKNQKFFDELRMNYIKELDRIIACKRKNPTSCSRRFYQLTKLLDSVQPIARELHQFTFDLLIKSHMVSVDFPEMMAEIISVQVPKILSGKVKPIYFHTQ

T2: AR-DBD (yeast 2-hybrid bait) (UniProt P10275 506-636)
T2 sequence (looked up): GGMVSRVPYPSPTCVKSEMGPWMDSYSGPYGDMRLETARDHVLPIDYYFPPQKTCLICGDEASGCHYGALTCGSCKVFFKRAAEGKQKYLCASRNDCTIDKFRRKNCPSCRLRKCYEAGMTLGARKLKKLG

T3: AR-AT (yeast 2-hybrid bait) (UniProt P10275 1-505)
T3 sequence (looked up): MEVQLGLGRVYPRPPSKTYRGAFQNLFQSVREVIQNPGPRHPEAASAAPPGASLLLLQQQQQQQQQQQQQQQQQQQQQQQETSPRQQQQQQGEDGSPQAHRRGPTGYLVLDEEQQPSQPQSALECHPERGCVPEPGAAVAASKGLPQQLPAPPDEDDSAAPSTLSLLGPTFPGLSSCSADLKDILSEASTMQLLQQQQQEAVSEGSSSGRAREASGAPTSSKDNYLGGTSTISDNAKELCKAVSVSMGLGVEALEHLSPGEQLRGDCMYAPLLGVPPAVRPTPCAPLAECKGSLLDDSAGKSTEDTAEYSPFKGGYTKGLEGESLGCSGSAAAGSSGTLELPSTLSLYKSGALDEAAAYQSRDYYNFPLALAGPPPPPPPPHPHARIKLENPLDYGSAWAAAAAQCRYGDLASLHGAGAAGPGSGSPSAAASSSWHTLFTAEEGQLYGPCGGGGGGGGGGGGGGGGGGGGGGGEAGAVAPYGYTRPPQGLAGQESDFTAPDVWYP

B1: pGAD424-GRIP1 (yeast 2-hybrid prey, GRIP1 amino acids 730-1121) (other, UniProt Q61026 730-1121, looked up, not shown: large carriers)
chain: VKQEPASPKKKENALLRYLLDKDDTKDIGLPEITPKLERLDSKTDPASNTKLIAMKTVKEEVSFEPSDQPGSELDNLEEILDDLQNSQLPQLFPDTRPGAPTGSVDKQAIINDLMQLTADSSPVPPAGAQKAALRMSQSTFNNPRPGQLGRLLPNQNLPLDITLQSPTGAGPFPPIRNSSPYSVIPQPGMMGNQGMLGSQGNLGNNSTGMIGSSTSRPSMPSGEWAPQSPAVRVTCAATTGAMNRPVQGGMIRNPTASIPMRANSQPGQRQMLQSQVMNIGPSELEMNMGGPQYNQQQAPPNQTAPWPESILPIDQASFASQNRQPFGSSPDDLLCPHPAAESPSDEGALLDQLYLALRNFDGLEEIDRALGIPELVSQSQAVDAEQFSSQE
B2: pACT2-PAK (yeast 2-hybrid prey) (other, not shown: large carriers)
chain: LKRRLFRSMFLSTAATAPPSSSKPGPPPQSKPNSSFRPPQKDNPPSLVAKAQSLPSDQPVGTFSPLTTSDTSSPQKSLRTAPATGQLPGRSSPAGSPRTWHAQISTSNLYLPQDPTVAKGALAGEDTGVVTHEQFKAALRMVVDQGDPRLLLDSYVKIGEGSTGIVCLAREKHSGRQVAVKMMDLRKQQRRELLFNEVVIMRDYQHFNVVEMYKNYLVGEELWVLMEFLQGGALTDIVSQVRLNEEQIATVCEAVLQALAYLHAQGVIHRDIKSDSILLTLDGRVKLSDFGFCAQISKDVPKRKSLVGTPYWMAPEVISRSLYATEVDIWSLGIMVIEMVDGEPPYFSDSPVQAMKRLRDSPPPKLKNSHKVSPVLRDFLERMLVRDPQERATAQELLDHPFLLQTGLPECLVPLIQLYRKQTSTC

How the values were obtained:
Test in all cases: cell-based or functional assay
[1] = biological target: T1, AR-DBD + LBD (yeast 2-hybrid bait)
[2] = biological target: T2, AR-DBD (yeast 2-hybrid bait)
[3] = biological target: pAS2 vector (empty bait control)
[4] = biological target: cortactin (yeast 2-hybrid bait)
[5] = biological target: T3, AR-AT (yeast 2-hybrid bait)

Row | Binder | Fold induction of β-galactosidase by DHT (yeast 2-hybrid) [1] | Fold induction of β-galactosidase by DHT (yeast 2-hybrid) [2] | Fold induction of β-galactosidase by DHT (yeast 2-hybrid) [3] | Fold induction of β-galactosidase by DHT (yeast 2-hybrid) [4] | Fold induction of β-galactosidase by DHT (yeast 2-hybrid) [5]
1 | B1 | 5.7 fold |  |  |  | 
2 | B2 | 27 fold | 0.9 fold | 1.2 fold | 1 fold | 1.1 fold

— patent US20030166623A1 (BETH ISRAEL DEACONESS MEDICAL CENTER, published 2003)
